The target of test [1] is PahZ2_(KT-1), poly(aspartic acid) hydrolase-2 of Sphingomonas sp. KT-1 (Sphingomonas sp. KT-1). In words: SEC.
For test [2] the target is unchanged. In words: SEC. This is another data set of the same source.

Like-named read-outs stand apart in the source and are kept apart here.

Consider one substance from PMC8657308.

In the case of “PahZ2_(KT-1), poly(aspartic acid) hydrolase-2 of Sphingomonas sp. KT-1 (enzyme)”, the stoichiometry N in test [1] is 2.4; in test [2], 1.94.
